Results: PMC3953565 (Methods in molecular biology (Clifton, N.J.), 2009)

Target: the molecule itself
Test: AUC

B1: recombinant human mitochondrial single-stranded DNA binding protein, mature form (natural protein, UniProt Q04837 17-148, looked up)
chain: ESETTTSLVLERSLNRVHLLGRVGQDPVLRQVEGKNPVTIFSLATNEMWRSGDSEVYQLGDVSQKTTWHRISVFRPGLRDVAYQYVKKGSRIYLEGKIDYGEYMDKNNVRRQATTIIADNIIFLSDQTKEKE
stoichiometry N: 4
